From US9505841B2, “Use of an anti-Ang2 antibody” (Samsung Electronics Co., Ltd., priority 2013, dated 2016)

Legend:
[1] = system: tumor blood vessels; assay: Lectin perfusion assay in LLC tumors; format: in vivo, mouse; settings: 10 mg/kg i.p., five administrations, compared to Fc- or 4H10-treated group
Protocol: To see the functions of tumor blood vessels treated with antibody 10D6, perfusion level of the blood vessel was examined by Lectin perfusion assay. Referring to the method described in Example 14, LLC tumor cells were subcutaneously injected into mice. When the size of tumors reached 50˜100 mm^3, anti-Ang2 antibody 10D6 was injected at the concentration of 10 mg/kg via an intraperitoneal injection three times a week and the size of the tumors was measured. For comparison, the same experiment was performed to a control group treated with Fc of IgG1 and a comparative group treated with antibody 4H10 (refer to Example 3).
After administering the antibody five-times, the mice were injected with FITC-Lectin (Vector laboratory) via tail vein, and after 20 minutes, subjected to perfusion fixation. Tumor frozen sections were obtained and immunostained using hamster anti-CD31 antibody (1:200, Millipore). Images were obtained using LSM5 confocal microscope (Zeiss), and Lectin+ area/CD31+ area was quantified using ImageJ software (http://rsb.info.nih.gov/ij).

[2] = system: Tie2 receptor; assay: Tie2 phosphorylation in HUVEC cells (immunoprecipitation/immunoblot); format: cell-based, human
Protocol: As Ang2 induces a change in vascular endothelial cells by binding to a Tie-2 receptor expressed in the vascular endothelial cells to induce the phosphorylation of the receptor and activate it, a test for analyzing an influence of the anti-Ang2 antibody on Tie2 phosphorylation was conducted using a cell-based assay.
For this, HUVEC (ATCC) cells (1×10^6) were cultured in a 100 mm culture dish using EGM-2 (Lonza) media at 37° C. and when they reached 80˜90% confluency, the media were replaced with serum-free media and cultured at 37° C. for 6 to 16 hours. The dish was washed once with PBS and after the replacement with […] sodium orthovanadate (Sigma)-mixed serum free media (Lonza), they were further cultured for 10 min. […]
In addition, referring to the above method, when 60 nM of antibody 10D6 and Ang2 were treated, the phosphorylation level of Tie2 was measured and compared with the case of treating a control antibody (anti-Ang2 antibody (Regeneron) which has MOA of inhibiting binding between Ang2 and Tie2; represented as ‘RG antibody’). After treating with the antibody (10D6 or RG), the blot band density of pTyr and Tie2 was measured using ImageJ software and pTyr/Tie2 ratio was calculated.

[3] = system: mutant Ang2 protein; assay: Epitope ELISA with alanine-mutated Ang2 proteins; format: binding, human; settings: A449 substituted with alanine
Protocol: To verify the epitope (or specific binding site) of the anti-Ang2 antibody prepared in Example 2, an ELISA was performed using a recombinant protein where a receptor binding domain (RBD) of Ang2 protein in the form of being tagged with Flag was mutated by artificial means.
Each well of a 96-well MaxiSorp™ flat-bottom plate (Nunc) was coated with 50 ul (microliter) of 1000 nM antibody. Then, the plate was washed five times with 0.05% (v/v) Tween-20-containing PBS (PBST) and blocked with 1% (v/v) BSA-containing PBS at a room temperature for 2 hours. 250 ng of each mutant Ang2 protein obtained by substituting S417, Q418, P419, N421, 1434, D448, A449, P452, Y460, N467, K468, or F469 residue of Ang2 protein tagged with a FLAG sequence (DYKDDDDK, Sigma) at its N-terminal with alanine was added to each well of the plate, which was then allowed to react at a room temperature for 2 hours. […]
Finally, 50 ul of TMB substrates (Cell signaling) was added to each well of the plate to induce color development at a room temperature for 3 min. and the reaction was ceased by the addition of 50 ul of Stop solution (Cell signaling) and then, OD450 values were measured on a plate reader (Molecular Devices). […]

[4] = system: blood vessels in tumor tissues; assay: Immunofluorescence of blood vessels (CD31) and pericytes (PDGFR-β) in LLC tumors; format: in vivo, mouse; settings: LLC tumors of Example 14; compared to Fc- or 4H10-treated tumors
Description: To examine changes in blood vessels in tumor tissues after treated with antibody, frozen sections were obtained and subjected to immunofluorescence staining using a blood vessel specific marker, CD31 and a pericyte specific marker, PDGFR-β.
In particular, the tumor tissues obtained from Example 14 were frozen using OCT compound (Sakura Finetek), and frozen sections were obtained therefrom using cryostat (Leica). The obtained tumor frozen sections were blocked with 0.3% TBST (TBS mixed with 0.3% Triton X-100) buffer supplemented with 5% goat serum (Jackson Immunoresearch) for one hour. To the blocking buffer, hamster anti-CD31 antibody (1:200, Millipore) and rat anti-PDGF receptor beta antibody (1:200, eBioscience) were added, and the frozen sections were added thereto to be allowed to react for 3 hours. the reacted product was washed with TBS three times, and then, the blocking buffer mixed with cy3-conjugated anti-hamster IgG antibody and FITC-conjugated anti-rat IgG antibody (1:1,000, Jackson Immunoresearch) was added the frozen sections to be allowed to react for 2 hours. After washing with TBS three times, the frozen sections were covered with coverslip (Marenfield) using Fluorescence mounting medium (DAKO). The stained tumor frozen sections were observed using LSM5 (Zeiss) confocal microscope. […]

B1: 10D6: mouse anti-Ang2 monoclonal antibody from hybridoma KCLRF-BP-00295; heavy chain variable region SEQ ID NO: 7, light chain variable region SEQ ID NO: 9 (antibody, V domains shown)
VH: DVQLQESGPGLVKPSQSLSLTCTVTGYSITSDYAWNWIRQFPGNKLEWMGYINYSGNTDYNPSLKSRSSITRDTSKNQFFLQLNSVTTGDTATYYCARGNFEGAMDYWGQGTSVTVSS
VL: SIVMTQTPKFLLVSAGDRVTITCKASQSVSNDVAWYQQKPGQSPKLLIYYASNRYPGVPDRFTGSGYGTDFTFTISTVQAEDLAVYFCQQDYSSPWTFGGGTKLEIK
modifications: Synthetic (Heavy chain variable region of an anti-Ang2 antibody); Synthetic (Light chain variable region of anti-Ang2 antibody)
percentage of Lectin+ area in CD31+ area [1]: increased | perfusion function of tumor blood vessels [1]: enhanced | Tie2 phosphorylation effect, fold higher than control antibody RG ([2]; 60 nM antibody and Ang2): about 8.6 fold | phosphorylation of Tie2 compared to Ang2 treated alone ([2]; antibody 600~0.06 nM with 40 nM Ang2, every antibody concentration tested): more strongly induced | binding affinity (%) with mutant Ang2 against the binding affinity with the native Ang2, 449 [3]: 97.86% | blood vessel density and vascular normalization in tumor [4]: decreases the density of blood vessels in tumor and induces vascular normalization
